Assay results as given in paper PMC2639635, “The Structure of Phosphorylase Kinase Holoenzyme at 9.9 Å Resolution and Location of the Catalytic Subunit and the Substrate Glycogen Phosphorylase” (Structure(London, England:1993), 2009).

T1: phosphorylase kinase α subunit (rabbit (endogenous in skeletal muscle), UniProt P18688 1-1237)
T1 construct: phosphorylase kinase α subunit, regulatory, skeletal muscle; printed as 138 kDa, 1237 amino acids; In the aged preparation used for Superdex 200 gel filtration the α subunit may have been partly proteolysed; source: purified from rabbit fast-twitch skeletal muscle as part of the PhK holoenzyme
T1 sequence (looked up): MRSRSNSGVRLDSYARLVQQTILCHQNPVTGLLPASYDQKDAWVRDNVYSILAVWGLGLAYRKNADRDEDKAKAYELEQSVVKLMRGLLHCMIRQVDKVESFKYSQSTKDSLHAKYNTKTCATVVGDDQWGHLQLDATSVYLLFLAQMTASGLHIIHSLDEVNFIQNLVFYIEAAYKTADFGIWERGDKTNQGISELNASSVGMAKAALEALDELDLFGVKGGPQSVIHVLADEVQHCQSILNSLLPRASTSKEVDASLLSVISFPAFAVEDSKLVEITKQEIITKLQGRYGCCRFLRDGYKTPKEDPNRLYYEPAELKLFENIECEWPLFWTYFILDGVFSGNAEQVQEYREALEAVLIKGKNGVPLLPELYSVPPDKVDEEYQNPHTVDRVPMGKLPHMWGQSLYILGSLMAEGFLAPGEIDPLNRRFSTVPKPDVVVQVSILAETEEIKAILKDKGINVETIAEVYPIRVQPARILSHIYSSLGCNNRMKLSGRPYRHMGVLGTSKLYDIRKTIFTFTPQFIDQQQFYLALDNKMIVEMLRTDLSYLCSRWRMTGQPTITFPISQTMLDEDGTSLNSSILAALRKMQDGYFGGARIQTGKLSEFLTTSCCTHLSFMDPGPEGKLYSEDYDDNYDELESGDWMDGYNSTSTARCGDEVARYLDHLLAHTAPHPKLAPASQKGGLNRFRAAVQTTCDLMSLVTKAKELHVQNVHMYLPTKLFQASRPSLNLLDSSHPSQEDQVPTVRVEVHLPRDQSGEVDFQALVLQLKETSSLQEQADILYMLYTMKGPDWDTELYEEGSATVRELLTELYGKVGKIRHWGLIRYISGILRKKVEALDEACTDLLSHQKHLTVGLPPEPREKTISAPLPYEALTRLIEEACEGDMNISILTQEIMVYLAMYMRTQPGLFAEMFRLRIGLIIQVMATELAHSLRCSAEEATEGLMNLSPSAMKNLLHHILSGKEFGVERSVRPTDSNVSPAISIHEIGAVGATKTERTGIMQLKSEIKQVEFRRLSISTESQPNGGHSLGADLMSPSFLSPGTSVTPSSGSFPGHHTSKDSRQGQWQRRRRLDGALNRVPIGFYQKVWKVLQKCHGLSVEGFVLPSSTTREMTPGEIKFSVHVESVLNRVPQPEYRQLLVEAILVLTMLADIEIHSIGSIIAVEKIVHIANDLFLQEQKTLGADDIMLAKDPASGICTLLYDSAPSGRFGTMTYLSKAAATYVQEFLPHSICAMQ

B1: phosphorylase kinase β subunit (natural protein, rabbit (endogenous in skeletal muscle), UniProt P12798 1-1093, looked up)
chain: MAGATGLMAEVSWKVLERRARTKRSGSVYEPLKSINLPRPDNETLWDKLDYYYKIVKSTLLLYQSPTTGLFPTKTCGGDQTAKIHDSLYCAAGAWALALAYRRIDDDKGRTHELEHSAIKCMRGILYCYMRQADKVQQFKQDPRPTTCLHSLFNVHTGDELLSYEEYGHLQINAVSLYLLYLVEMISSGLQIIYNTDEVSFIQNLVFCVERVYRVPDFGVWERGSKYNNGSTELHSSSVGLAKAALEAINGFNLFGNQGCSWSVIFVDLDAHNRNRQTLCSLLPRESRSHNTDAALLPCISYPAFALDDDVLYNQTLDKVIRKLKGKYGFKRFLRDGYRTSLEDPKRRYYKPAEIKLFDGIECEFPIFFLYMMIDGVFRGNPKQVKEYQDLLTPVLHQTTEGYPVVPKYYYVPADFVEYEKRNPGSQKRFPSNCGRDGKLFLWGQALYIIAKLLADELISPKDIDPVQRYVPLQNQRNVSMRYSNQGPLENDLVVHVALVAESQRLQVFLNTYGIQTQTPQQVEPIQIWPQQELVKAYFHLGINEKLGLSGRPDRPIGCLGTSKIYRILGKTVVCYPIIFDLSDFYMSQDVLLLIDDIKNALQFIKQYWKMHGRPLFLVLIREDNIRGSRFNPMLDMLAALKNGMIGGVKVHVDRLQTLISGAVVEQLDFLRISDTEELPEFKSFEELEPPKHSKVKRQSSTSNAPELEQQPEVSVTEWRNKPTHEILQKLNDCSCLASQTILLGILLKREGPNFITQEGTVSDHIERLYRRAGSKKLWLAVRYGAAFTQKFSSSIAPHITTFLVHGKQVTLGAFGHEEEVISNPLSPRVIKNIIYYKCNTHDEREAVIQQELVIHIGWIISNNPELFSGMLKIRIGWIIHAMEYELQIRSGDKPAKDLYQLSPSEVKQLLLDILQPQQNGRCWLNKRQIDGSLNRTPTGFYDRVWQILERTPNGIIVAGKHLPQQPTLSDMTMYEMNFSLLVEDMLGNIDQPKYRQIVVELLMVVSIVLERNPELEFQDKVDLDKLVKEAFHEFQKDESRLKEIEKQDDMTSFYNTPPLGKRGTCSYLTKVVMNLLLEGEVKPSNEDSCLVS
notes: phosphorylase kinase β subunit, regulatory; printed as 125 kDa, 1092 amino acids; source: purified from rabbit fast-twitch skeletal muscle as part of the PhK holoenzyme

Tests used:
Conditions in all cases: both partners purified
[1] = target: T1, phosphorylase kinase α subunit; assay: SEC; analytical Superdex 200 gel filtration of the PhK preparation several months after purification; fractions analysed by SDS-PAGE with Coomassie staining; subunits co-purified as the native complex
[2] = target: T2, phosphorylase kinase δ subunit (intrinsic calmodulin) (rabbit (endogenous in skeletal muscle), UniProt P62160 1-149); assay: cryo-EM structure; PhK holoenzyme alone, subunits co-purified as the native complex from muscle; 100 mM NaCl, 0.3 mM CaCl2, 5 mM MgCl2, 50 mM HEPES pH 8.2; single-particle reconstruction at 9.9 Å; PhKγt (PDB 2PHK) fitted as a rigid body
T2 construct: phosphorylase kinase δ subunit, the intrinsic calmodulin; printed as 16.7 kDa, 148 amino acids; also called δ-calmodulin subunit; calmodulin-δ-subunit; source: purified from rabbit fast-twitch skeletal muscle as part of the PhK holoenzyme

[3] = target: T1, phosphorylase kinase α subunit; assay: as above
[4] = target: B1; assay: as above

binding result [1] | binding result [2] | binding result [3] | binding result [4] | Binder
binds |  |  |  | B1
 | binds | binds | binds | phosphorylase kinase γ subunit (catalytic subunit) (natural protein, phosphorylase kinase γ subunit, catalytic; also called γ catalytic subunit; γ kinase subunit; source: purified from rabbit fast-twitch skeletal muscle as part of the PhK holoenzyme) not shown
